Results as given in patent US10696728B2, “Polypeptides, related nucleic acids, and their uses for cell modulation and treatments” (priority 2014, dated 2020).
Entries after “also recorded” stand apart in the source; their conditions may differ.

B1: TRPV1: Transient Receptor Potential channel Vanilloid 1, full length, amplified from mouse spinal cord cDNA; wild-type comparison channel without D5 (protein)
chain: MEKWASLDSDESEPPAQENSCPDPPDRDPNSKPPPAKPHIFATRSRTRLFGKGDSEEASPMDCPYEEGGLASCPIITVSSVVTLQRSVDGPTCLRQTSQDSVSTGVETPPRLYDRRSIFDAVAQSNCQELESLLSFLQKSKKRLTDSEFKDPETGKTCLLKAMLNLHNGQNDTIALLLDIARKTDSLKQFVNASYTDSYYKGQTALHIAIERRNMALVTLLVENGADVQAAANGDFFKKTKGRPGFYFGELPLSLAACTNQLAIVKFLLQNSWQPADISARDSVGNTVLHALVEVADNTADNTKFVTNMYNEILILGAKLHPTLKLEELTNKKGLTPLALAASSGKIGVLAYILQREIHEPECRHLSRKFTEWAYGPVHSSLYDLSCIDTCEKNSVLEVIAYSSSETPNRHDMLLVEPLNRLLQDKWDRFVKRIFYFNFFVYCLYMIIFTTAAYYRPVEGLPPYKLNNTVGDYFRVTGEILSVSGGVYFFFRGIQYFLQRRPSLKSLFVDSYSEILFFVQSLFMLVSVVLYFSHRKEYVASMVFSLAMGWTNMLYYTRGFQQMGIYAVMIEKMILRDLCRFMFVYLVFLFGFSTAVVTLIEDGKNNSLPVESPPHKCRGSACRPGNSYNSLYSTCLELFKFTIGMGDLEFTENYDFKAVFIILLLAYVILTYILLLNMLIALMGETVNKIAQESKNIWKLQRAITILDTEKSFLKCMRKAFRSGKLLQVGFTPDGKDDFRWCFRVDEVNWTTWNTNVGIINEDPGNCEGVKRTLSFSLRSGRVSGRNWKNFALVPLLRDASTRDRHSTQPEEVQLKHYTGSLKPEDAEVFKDSMAPGEK
modifications: Flag tag; Mouse TRPV1
B2: TRPV1.D5: mouse TRPV1 linked to human domain 5 of kininogen 1 (SEQ ID NO:2), fusion protein expressed from pLVX vector (protein)
chain: MEKWASLDSDESEPPAQENSCPDPPDRDPNSKPPPAKPHIFATRSRTRLFGKGDSEEASPMDCPYEEGGLASCPIITVSSVVTLQRSVDGPTCLRQTSQDSVSTGVETPPRLYDRRSIFDAVAQSNCQELESLLSFLQKSKKRLTDSEFKDPETGKTCLLKAMLNLHNGQNDTIALLLDIARKTDSLKQFVNASYTDSYYKGQTALHIAIERRNMALVTLLVENGADVQAAANGDFFKKTKGRPGFYFGELPLSLAACTNQLAIVKFLLQNSWQPADISARDSVGNTVLHALVEVADNTADNTKFVTNMYNEILILGAKLHPTLKLEELTNKKGLTPLALAASSGKIGVLAYILQREIHEPECRHLSRKFTEWAYGPVHSSLYDLSCIDTCEKNSVLEVIAYSSSETPNRHDMLLVEPLNRLLQDKWDRFVKRIFYFNFFVYCLYMIIFTTAAYYRPVEGLPPYKLNNTVGDYFRVTGEILSVSGGVYFFFRGIQYFLQRRPSLKSLFVDSYSEILFFVQSLFMLVSVVLYFSHRKEYVASMVFSLAMGWTNMLYYTRGFQQMGIYAVMIEKMILRDLCRFMFVYLVFLFGFSTAVVTLIEDGKNNSLPVESPPHKCRGSACRPGNSYNSLYSTCLELFKFTIGMGDLEFTENYDFKAVFIILLLAYVILTYILLLNMLIALMGETVNKIAQESKNIWKLQRAITILDTEKSFLKCMRKAFRSGKLLQVGFTPDGKDDFRWCFRVDEVNWTTWNTNVGIINEDPGNCEGVKRTLSFSLRSGRVSGRNWKNFALVPLLRDASTRDRHSTQPEEVQLKHYTGSLKPEDAEVFKDSMAPGEKCSRVSPPHTSMAPAQDEERDSGKEQGHTRRHDWGHEKQRKHNLGHGHKHERDQGHGHQRGHGLGHGHEQQHGLGHGHKFKLDDDLEHQGGHVLDHGHKHKHGHGHGKHKNKGKKNGKHNGWKTEHLASL
modifications: Flag tag; mouse/human chimera TRPv1.D5

How the values were obtained:
CaMKii = experiment: Western blot for phosphorylation of CaMKii (threonine 286) in HEK cells; format: cell-based; conditions: for level of p-CaMKii following RF stimulation: 36 hrs after transfection, FIG. 13
Description: HEK cells were transiently transfected with TRPv1.D5. 36 hrs after transfection, TRPv1.D5 cells were exposed to RF. At time points indicated, cells were lysed and protein analyzed by western blot for phosphorylation of CaMKii on threonine^286 (p-CaMKii) using phospho-specific antibodies (top panel). Control cells (0 min) had very little detectable p-CaMKii.

wild-type human TRPV1 = target: T1, wild-type human TRPV1 (Homo sapiens, UniProt Q8NER1); experiment: Heart defects in chick embryos with wild-type human TRPV1 exposed to capsaicin; format: in vivo, chicken; conditions: data not shown
T1 construct: expressed in transfected cells; host or cells: chick embryo (neural crest cells, in ovo)
T1 sequence (Q8NER1 whole entry): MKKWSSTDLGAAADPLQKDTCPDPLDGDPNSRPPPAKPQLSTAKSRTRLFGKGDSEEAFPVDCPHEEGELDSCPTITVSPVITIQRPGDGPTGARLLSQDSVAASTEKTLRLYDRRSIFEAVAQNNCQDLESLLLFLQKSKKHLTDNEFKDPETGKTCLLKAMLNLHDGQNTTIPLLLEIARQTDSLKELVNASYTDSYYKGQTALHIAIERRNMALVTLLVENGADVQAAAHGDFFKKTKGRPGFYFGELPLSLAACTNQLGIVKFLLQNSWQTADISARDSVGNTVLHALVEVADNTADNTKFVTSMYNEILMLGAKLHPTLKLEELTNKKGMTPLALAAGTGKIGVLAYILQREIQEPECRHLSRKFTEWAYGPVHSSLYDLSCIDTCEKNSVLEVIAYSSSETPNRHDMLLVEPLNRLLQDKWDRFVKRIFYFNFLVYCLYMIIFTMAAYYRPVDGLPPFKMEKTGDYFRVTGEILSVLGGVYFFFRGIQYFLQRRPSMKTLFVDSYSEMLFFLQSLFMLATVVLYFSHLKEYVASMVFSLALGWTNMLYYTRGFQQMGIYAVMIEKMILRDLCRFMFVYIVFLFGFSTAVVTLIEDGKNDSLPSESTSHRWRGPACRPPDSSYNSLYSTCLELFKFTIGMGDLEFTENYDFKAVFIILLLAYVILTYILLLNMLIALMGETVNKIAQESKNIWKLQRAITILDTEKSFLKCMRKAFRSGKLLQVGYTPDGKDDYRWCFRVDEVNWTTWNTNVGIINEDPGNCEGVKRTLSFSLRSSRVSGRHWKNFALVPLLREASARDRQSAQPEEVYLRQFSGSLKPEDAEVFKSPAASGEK

human ferritin = experiment: Subcellular distribution of ferritin (FTH1-mCherry) in HEK-293 cells, confocal imaging; format: cell-based; conditions: co-transfection with FTH1-mCherry in HEK-293, FIG. 9a/9b
human ferritin, sequence (P02794 whole entry, the tested form may be a part): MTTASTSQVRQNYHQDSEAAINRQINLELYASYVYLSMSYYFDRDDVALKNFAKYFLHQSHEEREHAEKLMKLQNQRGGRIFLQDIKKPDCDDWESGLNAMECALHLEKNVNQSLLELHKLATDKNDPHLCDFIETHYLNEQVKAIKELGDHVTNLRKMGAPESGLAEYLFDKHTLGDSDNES
Text: TRPV1.D5 redistributes endogenous ferritin to membranes. To visualize subcellular distribution of ferritin, we fused human ferritin with mCherry (FTH1-mCherry) at the C-terminal. Expression of FTH1-mCherry in HEK-293 yielded normal cytoplasmic distribution.

HEK cells = experiment: GCaMP fluorescence (Ca2+ influx) in HEK cells at three levels of applied RF field; format: cell-based; conditions: for increase of green fluorescence emitted by GCAMP, all cells (both green and red) / increase of green fluorescence emitted by GCAMP, cells that visually became brighter: FIG. 11
Description: Expression of TRPv1.D5 in HEK cells: HEK cell expression was performed using transient transfection. Briefly, 1 μg of plasmid was mixed with Lipofectamine LTX with PLUS reagent (Life Technologies) following the manufacturer instructions. Expression was confirmed by standard western blot technique. Once expression was confirmed, pLVX.TRPv1.D5 was co-transfected with a plasmid containing GCaMP6 (addgene). GCaMP6 is a genetically encoded Calcium indicator. Its green fluorescence increases in the presence of increasing amounts of intracellular calcium. Green fluorescence was analyzed in HEK cells using MetaFluor Analyst Software (Molecular Devices) following manufacture instructions. Transfected cells were analyzed prior to RF exposure and during 10 minutes of RF exposure, as discussed below.
The intensity of red fluorescence protein (RFP) indicates the cells that expressed TRPV1.D5 with mCherry.
FIG. 11 quantifies the fluorescence intensity at three levels of applied electromagnetic fields. Red fluorescence emitted by mCherry (“Red Fluorescence”) increased by less than 6.5% at the end of experiments. Green fluorescence (GCaMP3) emitted by GCAMP in cells without TRPV1.D5 (“GCAMP-TRPV1 (green only, not red)”) increased by less than 6.9%.

HEK-293 cells = experiment: GCaMP fluorescence in mCherry+ HEK-293 cells in response to RF (190 MHz Helmholtz coil) or capsaicin; format: cell-based; conditions: for GCaMP response to capsaicin: 1 μM capsaicin; for Ca2+ permeability following RF: RF stimulation 190 MHz, FIG. 12
Text: A Helmholtz coil (190 MHz) was placed over a petri dish loaded with HEK-293 cells. RF power was supplied by a broadband (0-400 MHz) signal generator and amplified using a 10-W linear amplifier. We used GCaMP as an intracellular calcium indicator whose intensity is proportional to the amount of bound calcium. Using widefield fluorescent microscopy, we measured the change in GCaMP fluorescence in mCherry+ cells expressing TRPV1 and TRPV1.D5 in response to RF stimulation.

chick embryos = experiment: Congenital heart defects in chick embryos with channel expression in neural crest cells; format: in vivo, chicken
ferritin = experiment: Co-immunoprecipitation of ferritin with Flag-tagged channel; format: binding, human
ferritin, sequence (P02794 whole entry): as the sequence (P02794 whole entry, the tested form may be a part) above

[1] = system: Neural Crest Cells (NCCs) in chicken embryos; experiment: p-CaMKii immunostaining in neural crest cells of chick embryos after in ovo electroporation; format: in vivo
Text: To determine if Ca^2+ flow could be modulated in vivo, we targeted wild-type TRPV1 or TRPV1.D5 expression to pre-migratory Neural Crest Cells (NCCs) in chicken embryos. NCC migration is dependent on control of Ca^2+ influx. (See, Hutson et al. 2003) NCCs transverse long distances through the embryo to enable proper heart development (e.g. outflow tracts). We utilized RF to increase Ca^2+ flow in NCCs while these cells were migrating out of the dorsal neural tube.
TRPV1.D5 was cloned into pLVX-EF1α-IRES-mCherry vectors. Plasmid DNA was then electroporated in ovo into the dorsal neural tube of chick embryos at Hamburger-Hamilton stage 9-11 to target premigratory NCCs. Twenty four hours later, expression of mCherry was confirmed and eggs were then subjected to no RF (FIG. 14a, control) or 10 minutes of RF (FIG. 14b and FIG. 14c). Immediately afterwards, embryos were removed and fixed in paraformaldehyde. These embryos were cryosectioned and stained for mCherry to identify TRPv1.D5+ cells and phosphorylated CaMKii (p-CaMKii) using an anti-Phospho-CaMKII antibody.

Row | Molecule | subcellular distribution of FTH1-mCherry (ferritin) (human ferritin) | increase of green fluorescence emitted by GCAMP, all cells (both green and red) (HEK cells; high RF (132 G)) | increase of green fluorescence emitted by GCAMP, cells that visually became brighter (HEK cells; high RF (132 G)) | increase of green fluorescence emitted by GCAMP, all cells (both green and red) (HEK cells; low RF (62 G)) | increase of green fluorescence emitted by GCAMP, cells that visually became brighter (HEK cells; low RF (62 G)) | GCaMP response to capsaicin (HEK-293 cells) | Ca2+ permeability following RF (HEK-293 cells) | other results
1 | COc1cc(CNC(=O)CCCC/C=C/C(C)C)ccc1O [capsaicin, reference compound] | – | – | – | – | – | – | – | phosphorylation of CaMKii (CaMKii; 1 μm Capsaicin (Cap+), TRPv1.D5 transfected HEK cells): induced phosphorylation of CaMKii; replication of the defects caused by TRPV1.D5+RF (wild-type human TRPV1): replicated
2 | B1 | cytoplasmic distribution was not altered | 22.2% | 151.3% | 9.0% | 48.3% | responded equally well | only TRPV1.D5 induced a transient increase | development of heart defects (chick embryos; with or without RF): Neither the TRPV1 embryos (with or without RF) nor the non-RF treated TRPV1.D5 embryos developed any defects
3 | B2 | redistributed FTH1-mCherry to cell membranes | 22.2% | 151.3% | 9.0% | 48.3% | responded equally well | induced a transient increase in Ca^2+ permeability; also recorded: increases Ca^2+ ion modulation | co-immunoprecipitation of Ferritin-mCherry (ferritin; Flag-labelled channel, FIG. 9e, listed as Flag-TRPV1.D5): co-immunoprecipitates; pull-down of ferritin-mCherry and endogenous ferritin by immunoprecipitation (ferritin; data not shown): successfully pulled down both ferritin-mCherry and endogenous ferritin; GCAMP3 intensity on application of RF/EM fields (HEK cells; with vs without RF, FIG. 10): increased in the presence of RF; also recorded: increased GCAMP3 intensity; time of peak p-CaMKii level following RF stimulation (CaMKii; TRPv1.D5+ HEK cells): 10 min; level of p-CaMKii following RF stimulation (CaMKii; TRPv1.D5+ HEK cells): induces p-CaMKii; level of p-CaMKii following RF stimulation (CaMKii; TRPv1.D5+ HEK cells, listed as TRPv1.D5): increases; p-CaMKii in neural crest cells ([1]; 10 minutes of RF, FIG. 14b/14c): clear co-localization of the mutant channel and p-CaMKii; p-CaMKii in neural crest cells ([1]; no RF (control animals), FIG. 14a): did not observe detectable levels of p-CaMKii; heart defects on RF activation in cardiac neural crest cells (chick embryos; RF for 10 minutes, FIG. 15): results in heart defects; embryos that developed congenital heart defects (VSD, double outlet right ventricle, transposition of great vessels) (chick embryos; RF-treated, day 10 post experiments): ~60%; development of heart defects (chick embryos; non-RF treated): nor the non-RF treated TRPV1.D5 embryos developed any defects
